# B1: PGT-121 (antibody, V domains shown)
# VH: QMQLQESGPGLVKPSETLSLTCSVSGASISDSYWSWIRRSPGKGLEWIGYVHKSGDTNYSPSLKSRVNLSLDTSKNQVSLSLVAATAADSGKYYCARTLHGRRIYGIVAFNEWFTYFYMDVWGNGTQVTVSS
# VL: SDISVAPGETARISCGEKSLGSRAVQWYQHRAGQAPSLIIYNNQDRPSGIPERFSGSPDSPFGTTATLTITSVEAGDEADYYCHIWDSRVPTKWVFGGGTTLTVLG
# B2: ePGT121.15.H1.L1 (antibody, V domains shown)
# VH: QMQLQESGPGLVKPGETLSLTCSVSGASISSSYWSWLRETPGKGLEWIGYTHHSGDTNYAPSLKSRVHLGLHPSKNQVSLSLTSVTAADTAVYYCARTLHGRRIYGVVAFNEWFTYFYWEVWGNGTQVTVSS
# VL: SDISVAPGETVRISCGGESIGSRAVQWYQHRAGQAPKLIIYNNQDRPPGIPERFSGSPDIDFGTTATLTITNVEAGDEATYYCHIWDSRRPTNWVFGGGTTLTVL
# Legend:
# Test in all cases: cell-based or functional assay
# HIV Env of isolate CNE53 = HIV Env of isolate CNE53 (HIV)
# [1] = molecular target: HIV Env of isolate 3301.v1.c24 (HIV)
# [2] = molecular target: HIV Env of isolate BF1266.431a (HIV)
# [3] = molecular target: HIV Env of isolate 191955_A11 (HIV)
# HIV Env of isolate CNE20 = HIV Env of isolate CNE20 (HIV)
# [4] = molecular target: HIV Env of isolate T251-18 (HIV)
# [5] = molecular target: HIV Env of isolate 1006_11_C3_1601 (HIV)
# [6] = molecular target: HIV Env of isolate 1394C9G1(Rev-) (HIV)
# [7] = molecular target: HIV Env of isolate SC422661.8 (HIV)
# [8] = molecular target: HIV Env of isolate CAP45.2.00.G3 (HIV)
# [9] = molecular target: HIV Env of isolate Ce1172_H1 (HIV)
# [10] = molecular target: HIV Env of isolate 6535.3 (HIV)
# [11] = molecular target: HIV Env of isolate Du422.1 (HIV)
# [12] = molecular target: HIV Env of isolate WITO4160.33 (HIV)
# [13] = molecular target: HIV Env of isolate Ce2060_G9 (HIV)
# [14] = molecular target: HIV Env of isolate ZM135M.PL10a (HIV)
# [15] = molecular target: HIV Env of isolate P1981_C5_3 (HIV)
# [16] = molecular target: HIV Env of isolate 6244_13_B5_4576 (HIV)
# [17] = molecular target: HIV Env of isolate T278-50 (HIV)
# [18] = molecular target: HIV Env of isolate Ce703010054_2A2 (HIV)
# [19] = molecular target: HIV Env of isolate ZM53M.PB12 (HIV)
# [20] = molecular target: HIV Env of isolate T257-31 (HIV)
# [21] = molecular target: HIV Env of isolate 235-47 (HIV)
# [22] = molecular target: HIV Env of isolate 3103.v3.c10 (HIV)
# [23] = molecular target: HIV Env of isolate ZM109F.PB4 (HIV)
# [24] = molecular target: HIV Env of isolate 191084_B7-19 (HIV)
# [25] = molecular target: HIV Env of isolate 6480.v4.c25 (HIV)
# [26] = molecular target: HIV Env of isolate HIV-16845-2.22 (HIV)
# [27] = molecular target: HIV Env of isolate C1080.c03 (HIV)
# [28] = molecular target: HIV Env of isolate REJO4541.67 (HIV)
# [29] = molecular target: HIV Env of isolate BJOX025000.01.1 (HIV)
# HIV Env of isolate CNE5 = HIV Env of isolate CNE5 (HIV)
# [30] = molecular target: HIV Env of isolate 928-28 (HIV)
# [31] = molecular target: HIV Env of isolate HIV-001428-2.42 (HIV)
# [32] = molecular target: HIV Env of isolate TRJO4551.58 (HIV)
# [33] = molecular target: HIV Env of isolate AC10.0.29 (HIV)
# [34] = molecular target: HIV Env of isolate 1012_11_TC21_3257 (HIV)
# HIV Env of isolate CNE8 = HIV Env of isolate CNE8 (HIV)
# [35] = molecular target: HIV Env of isolate 6041.v3.c23 (HIV)
# [36] = molecular target: HIV Env of isolate 0260.v5.c36 (HIV)
# [37] = molecular target: HIV Env of isolate Ce2010_F5 (HIV)
# [38] = molecular target: HIV Env of isolate ZM233M.PB6 (HIV)
# [39] = molecular target: HIV Env of isolate A07412M1.vrc12 (HIV)
# [40] = molecular target: HIV Env of isolate 249M_B10 (HIV)
# [41] = molecular target: HIV Env of isolate 231965.c01 (HIV)
binder,measurement,setting,value
B1,neutralization IC50,HIV Env of isolate CNE53,0.007 µg/mL
same,neutralization IC50,[1],0.008 µg/mL
same,neutralization IC50,[2],> 50 µg/mL
same,neutralization IC50,[3],> 50 µg/mL
same,neutralization IC50,HIV Env of isolate CNE20,0.001 µg/mL
same,neutralization IC50,[4],29 µg/mL
same,neutralization IC50,[5],0.002 µg/mL
same,neutralization IC50,[6],0.264 µg/mL
same,neutralization IC50,[7],0.038 µg/mL
same,neutralization IC50,[8],1.63 µg/mL
same,neutralization IC50,[9],0.011 µg/mL
same,neutralization IC50,[10],0.002 µg/mL
same,neutralization IC50,[11],0.039 µg/mL
same,neutralization IC50,[12],0.334 µg/mL
same,neutralization IC50,[13],> 50 µg/mL
same,neutralization IC50,[14],0.716 µg/mL
same,neutralization IC50,[15],0.001 µg/mL
same,neutralization IC50,[16],0.061 µg/mL
same,neutralization IC50,[17],> 50 µg/mL
same,neutralization IC50,[18],> 50 µg/mL
same,neutralization IC50,[19],0.001 µg/mL
same,neutralization IC50,[20],> 50 µg/mL
same,neutralization IC50,[21],0.137 µg/mL
same,neutralization IC50,[22],0.009 µg/mL
same,neutralization IC50,[23],8.64 µg/mL
same,neutralization IC50,[24],0.011 µg/mL
same,neutralization IC50,[25],0.001 µg/mL
same,neutralization IC50,[26],3.97 µg/mL
same,neutralization IC50,[27],> 50 µg/mL
same,neutralization IC50,[28],4.77 µg/mL
same,neutralization IC50,[29],> 50 µg/mL
same,neutralization IC50,HIV Env of isolate CNE5,> 50 µg/mL
same,neutralization IC50,[30],44.2 µg/mL
same,neutralization IC50,[31],0.014 µg/mL
same,neutralization IC50,[32],1.31 µg/mL
same,neutralization IC50,[33],0.024 µg/mL
same,neutralization IC50,[34],0.003 µg/mL
same,neutralization IC50,HIV Env of isolate CNE8,> 50 µg/mL
same,neutralization IC50,[35],> 50 µg/mL
same,neutralization IC50,[36],0.053 µg/mL
same,neutralization IC50,[37],> 50 µg/mL
same,neutralization IC50,[38],3.69 µg/mL
same,neutralization IC50,[39],0.009 µg/mL
same,neutralization IC50,[40],> 50 µg/mL
same,neutralization IC50,[41],> 50 µg/mL
B2,neutralization IC50,HIV Env of isolate CNE53,0.001 µg/mL
same,neutralization IC50,[1],0.0029 µg/mL
same,neutralization IC50,[2],> 50 µg/mL
same,neutralization IC50,[3],> 50 µg/mL
same,neutralization IC50,HIV Env of isolate CNE20,0.0003 µg/mL
same,neutralization IC50,[4],0.0055 µg/mL
same,neutralization IC50,[5],0.0003 µg/mL
same,neutralization IC50,[6],0.0004 µg/mL
same,neutralization IC50,[7],0.0005 µg/mL
same,neutralization IC50,[8],5.02 µg/mL
same,neutralization IC50,[9],0.0003 µg/mL
same,neutralization IC50,[10],0.0003 µg/mL
same,neutralization IC50,[11],0.0007 µg/mL
same,neutralization IC50,[12],0.0011 µg/mL
same,neutralization IC50,[13],> 50 µg/mL
same,neutralization IC50,[14],0.132 µg/mL
same,neutralization IC50,[15],0.0014 µg/mL
same,neutralization IC50,[16],0.0037 µg/mL
same,neutralization IC50,[17],0.0124 µg/mL
same,neutralization IC50,[18],> 50 µg/mL
same,neutralization IC50,[19],0.0006 µg/mL
same,neutralization IC50,[20],> 50 µg/mL
same,neutralization IC50,[21],0.0019 µg/mL
same,neutralization IC50,[22],0.0017 µg/mL
same,neutralization IC50,[23],10.7 µg/mL
same,neutralization IC50,[24],0.0009 µg/mL
same,neutralization IC50,[25],0.0012 µg/mL
same,neutralization IC50,[26],0.0072 µg/mL
same,neutralization IC50,[27],> 50 µg/mL
same,neutralization IC50,[28],3.17 µg/mL
same,neutralization IC50,[29],> 50 µg/mL
same,neutralization IC50,HIV Env of isolate CNE5,15.8 µg/mL
same,neutralization IC50,[30],0.0178 µg/mL
same,neutralization IC50,[31],0.0001 µg/mL
same,neutralization IC50,[32],0.0005 µg/mL
same,neutralization IC50,[33],0.0002 µg/mL
same,neutralization IC50,[34],0.0009 µg/mL
same,neutralization IC50,HIV Env of isolate CNE8,> 50 µg/mL
same,neutralization IC50,[35],12.4 µg/mL
same,neutralization IC50,[36],0.004 µg/mL
same,neutralization IC50,[37],> 50 µg/mL
same,neutralization IC50,[38],0.0124 µg/mL
same,neutralization IC50,[39],0.0022 µg/mL
same,neutralization IC50,[40],0.0022 µg/mL
same,neutralization IC50,[41],> 50 µg/mL
